Measured values taken from patent publication US12344663B2, “Anti-C3 antibodies and antigen-binding fragments thereof and their uses for treating eye or ocular diseases” (CDR-Life AG, priority 2021, dated 2025).

Assay: In vitro BrM permeation assay, Ussing chamber
Type: in vitro ADME, porcine
Settings: 0.1 mg/ml, up to 72 h, in words
Experimental: Porcine Bruch's membrane samples are used for this measurement. Porcine eyes are collected from the slaughterhouse) no more than 6 hours after the animals were sacrificed and stored at 4° C. until use (on same day).
Preparation of enriched Bruch's Membrane (BrM): The eyes are placed into a disposable petri-dish and any residual tissue surrounding the eyeball is removed. The eyeball is incised next to the iris with a scalpel and the front part of the eye as well as lens, vitreous and retinal tissue are removed from the eyecup. […]
Sampling and membrane integrity analysis: For sampling at different timepoints (4 h, 24 h, 48 h and 72 h) the solution in the single compartments is mixed by carefully pipetting up and down and 90 μl were transferred separately from each sample and diffusate chamber to collection tubes. […] Accumulation of blue particles in the second compartment is observed and camera pictures are recorded to control for overall membrane integrity.
Sample analysis: 15 μl of each solution from the sample and diffusate chambers are effectively loaded on 2 precast polyacrylamide gels (NuPAGE Bis-Tris gels) together with a similar amount of stored mastermix as loading control. The first gel is analyzed by standard SDS-PAGE and Coomassie-based staining methods for protein detection (anti-C3 scFv). […]
Evaluation: Pictures of the SDS-gels are analyzed using ImageJ2 software (Fiji). […]

Substance: Gly-I-[CV-Trp(Me)-QDWGAHRC]-T-NH2 [Compound A2]
- Diffusion/penetration through porcine Bruch's membrane: No penetration
